Measured values taken from the supplement of paper PMC7125110.
± gives the standard error. For some of these results: This sample holds only a part of the variants without activity.

B1: glmS ribozyme (parent)
chain: AUAAAAGCGCCAGAACUACAGAAAUGUAGUUGACGAGGAGGAGGUUUAUCGAAUUUUCGGCGGAUGCCUCCAAA

Key:
Conditions in all cases: with glucosamine-6-phosphate
glucosamine-6-phosphate [1] = variants of: B1; test: kcat; higher = faster cleavage; RNA array
Procedure, shortened: (§1)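 E. coli RNA polymerase transcribed barcoded ribozyme variants in situ on sequenced MiSeq chips, which were tracked via a hybridised Cy3 probe at 37 °C. Tiles were imaged over ~14 h after glucosamine-6-phosphate (40 μM to 10 mM) in HEPES/KCl/Mg(OAc)2 buffer was flowed in. Normalised per-tile medians were fit to one- or two-exponential decays for kobs, and kcat and KM came from weighted Michaelis–Menten fits.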

glucosamine-6-phosphate [2] = variants of: B1; test: self-cleavage kobs at 40 uM GlcN6P; higher = faster cleavage; RNA array
Procedure, shortened: as §1

glucosamine-6-phosphate [3] = variants of: B1; test: self-cleavage kobs at 160 uM GlcN6P; higher = faster cleavage; RNA array
Procedure, shortened: as §1

glucosamine-6-phosphate [4] = variants of: B1; test: self-cleavage kobs at 640 uM GlcN6P; higher = faster cleavage; RNA array
Procedure, shortened: as §1

glucosamine-6-phosphate [5] = variants of: B1; test: self-cleavage kobs at 10000 uM GlcN6P; higher = faster cleavage; RNA array
Procedure, shortened: as §1

glucosamine-6-phosphate [6] = variants of: B1; test: self-cleavage kobs at 2500 uM GlcN6P; higher = faster cleavage; RNA array
Procedure, shortened: as §1

glucosamine-6-phosphate [7] = variants of: B1; test: KM; higher = weaker cofactor use; RNA array
Procedure, shortened: as §1

| Variant | kcat (glucosamine-6-phosphate [1]) [s⁻¹] | self-cleavage kobs at 40 uM GlcN6P (glucosamine-6-phosphate [2]) [s⁻¹] | self-cleavage kobs at 160 uM GlcN6P (glucosamine-6-phosphate [3]) [s⁻¹] | self-cleavage kobs at 640 uM GlcN6P (glucosamine-6-phosphate [4]) [s⁻¹] | self-cleavage kobs at 10000 uM GlcN6P (glucosamine-6-phosphate [5]) [s⁻¹] | self-cleavage kobs at 2500 uM GlcN6P (glucosamine-6-phosphate [6]) [s⁻¹] | KM (glucosamine-6-phosphate [7]) [µM] |
| --- | --- | --- | --- | --- | --- | --- | --- |
| A39C G59A | < 1e-05 | < 1e-05 | < 1e-05 | < 1e-05 | – | – | – |
| G37U G51C | < 1e-05 | – | – | – | < 1e-05 | – | – |
| A36U A39C | < 1e-05 | < 1e-05 | < 1e-05 | – | < 1e-05 | < 1e-05 | – |
| G37C U45A | 0.00017 ± 2.9e-05 | – | – | 2.56e-05 ± 1.3e-05 | 0.000109 ± 1.6e-05 | 4.81e-05 ± 9.9e-06 | 5840 ± 1900 |
| A39G U65G | 0.0131 ± 0.0026 | 0.000177 ± 2.2e-05 | 0.00068 ± 0.00014 | 0.00161 ± 0.00039 | 0.0103 ± 0.0015 | 0.00553 ± 0.0018 | 3200 ± 790 |
| G37A G38C C67U C68G C71U | 2.2e-05 ± 4e-06 | – | – | – | – | – | – |
| G38A U49A | < 1e-05 | < 1e-05 | – | – | < 1e-05 | – | – |
| A39C C58A | 0.000217 ± 9.9e-05 | < 1e-05 | – | – | 5.19e-05 ± 9.6e-06 | – | – |
| A36C C50U | < 1e-05 | < 1e-05 | – | – | – | – | – |
| A36C C58A | 1.11e-05 ± 3.9e-06 | < 1e-05 | – | – | – | – | – |
| A39U A64G | 0.031 ± 0.012 | 0.000447 ± 5.6e-05 | 0.00134 ± 0.00017 | 0.00498 ± 0.0006 | 0.0327 ± 0.0047 | 0.0101 ± 0.0015 | – |
| G40A A48G | 4.48e-05 ± 1.1e-05 | < 1e-05 | – | – | 3.71e-05 ± 7.6e-06 | 4.6e-05 ± 7.9e-06 | – |
| A39U A52G | 0.00113 ± 0.00012 | – | 5.2e-05 ± 1.4e-05 | 0.000134 ± 1.3e-05 | 0.00078 ± 5.8e-05 | 0.000345 ± 5.5e-05 | 4750 ± 800 |
| G37C C70G | 1.47e-05 ± 4.3e-06 | – | – | – | – | – | – |
| A39U A48G | 0.000105 ± 2.3e-05 | < 1e-05 | < 1e-05 | – | 8.13e-05 ± 1.5e-05 | 6.61e-05 ± 1.5e-05 | – |
| A39U A48U | 0.000306 ± 1.3e-05 | – | – | 8.14e-05 ± 9.1e-06 | 0.000257 ± 2.2e-05 | 0.000201 ± 2.9e-05 | 1710 ± 170 |
| A39U U47A | 0.0219 ± 0.0045 | 0.000309 ± 3.8e-05 | 0.000791 ± 0.00013 | 0.00397 ± 0.00055 | 0.0166 ± 0.002 | 0.00871 ± 0.0017 | 3320 ± 900 |

| Variant | kcat (glucosamine-6-phosphate [1]) [s⁻¹] | self-cleavage kobs at 40 uM GlcN6P (glucosamine-6-phosphate [2]) [s⁻¹] | self-cleavage kobs at 160 uM GlcN6P (glucosamine-6-phosphate [3]) [s⁻¹] | self-cleavage kobs at 640 uM GlcN6P (glucosamine-6-phosphate [4]) [s⁻¹] | self-cleavage kobs at 10000 uM GlcN6P (glucosamine-6-phosphate [5]) [s⁻¹] | self-cleavage kobs at 2500 uM GlcN6P (glucosamine-6-phosphate [6]) [s⁻¹] | KM (glucosamine-6-phosphate [7]) [µM] |
| --- | --- | --- | --- | --- | --- | --- | --- |
| A39U U47G | 0.00519 ± 0.00052 | 0.000119 ± 1.7e-05 | 0.000358 ± 4.8e-05 | 0.00132 ± 0.00018 | 0.00439 ± 0.00057 | 0.00285 ± 0.00052 | 1940 ± 270 |
| A39U G41U | 0.00058 ± 0.00011 | – | 6.52e-05 ± 1.2e-05 | 0.000138 ± 1.7e-05 | 0.000489 ± 6.8e-05 | 0.000402 ± 6.4e-05 | 1710 ± 530 |
| A39U U54C | 0.0342 ± 0.014 | 0.000447 ± 5e-05 | – | 0.00436 ± 0.00054 | 0.0285 ± 0.0042 | 0.00989 ± 0.0032 | – |
| A39C A64C | 4.47e-05 ± 2.7e-06 | – | < 1e-05 | – | 4.27e-05 ± 1.3e-05 | 4.35e-05 ± 1.6e-05 | – |
| A39C C67U | 0.000495 ± 9.5e-05 | 3.13e-05 ± 7.5e-06 | 7.1e-05 ± 8.8e-06 | 0.000154 ± 1.3e-05 | 0.000443 ± 5.1e-05 | 0.000377 ± 3.5e-05 | 1150 ± 400 |
| G37C U54C | 6.94e-05 ± 3e-05 | – | – | – | 3.48e-05 ± 7.4e-06 | – | – |
| A39G G41U | 0.0014 ± 8.3e-05 | 3.41e-05 ± 9.8e-06 | 0.000143 ± 2.9e-05 | 0.000467 ± 8.1e-05 | 0.00119 ± 0.00016 | 0.000965 ± 0.00021 | 1410 ± 140 |
| G40A C68U | 5.12e-05 ± 6.5e-06 | < 1e-05 | – | – | 4.59e-05 ± 5.4e-06 | 4.58e-05 ± 1e-05 | – |
| A39C G66U | 0.00114 ± 0.00017 | – | 8.13e-05 ± 2.3e-05 | 0.000198 ± 3.9e-05 | 0.000908 ± 9.9e-05 | 0.000424 ± 8.2e-05 | 3090 ± 910 |
| A39C G66C | 0.00165 ± 0.00036 | 3.24e-05 ± 1.1e-05 | 7.03e-05 ± 1.6e-05 | 0.000348 ± 6.6e-05 | 0.0012 ± 0.00016 | 0.00104 ± 0.00017 | 2780 ± 960 |
| A36G U55C | 1.01e-05 ± 4e-06 | – | – | – | – | – | – |
| A39G U55C | 0.0858 ± 0.023 | 0.00123 ± 0.00015 | 0.00406 ± 0.0011 | 0.0122 ± 0.0029 | 0.0709 ± 0.018 | – | 3000 ± 920 |
| G37C C71U | 3.39e-05 ± 1.3e-06 | – | – | – | 3.23e-05 ± 8.2e-06 | 2.55e-05 ± 9.5e-06 | 662 ± 140 |
| G37C C71A | 1.96e-05 ± 6.3e-06 | – | – | – | – | – | – |
| G38U G51U | < 1e-05 | – | – | – | – | – | – |
| G38U C68G | 0.000246 ± 5.7e-05 | 6.28e-05 ± 1e-05 | 0.000349 ± 0.00017 | 0.000294 ± 4.2e-05 | 0.000182 ± 4e-05 | – | 108 ± 52 |
